The test concerns the target Gluc2-VP3 BTV8 (pSPICA-N2-VP3 BTV8). Put plainly: split reporter (BiFC, NanoBiT).

For the molecule “Gluc1-MAVS (pSPICA-N1 human MAVS) (from UniProt Q7Z434 1-540) (natural protein)”, the NLR (normalized luminescence ratio) came to 17.4.

B1: Gluc1-IKKε (pSPICA-N1 human IKKε) (natural protein)
chain: MQSTANYLWHTDDLLGQGATASVYKARNKKSGELVAVKVFNTTSYLRPREVQVREFEVLRKLNHQNIVKLFAVEETGGSRQKVLVMEYCSSGSLLSVLESPENAFGLPEDEFLVVLRCVVAGMNHLRENGIVHRDIKPGNIMRLVGEEGQSIYKLTDFGAARELDDDEKFVSVYGTEEYLHPDMYERAVLRKPQQKAFGVTVDLWSIGVTLYHAATGSLPFIPFGGPRRNKEIMYRITTEKPAGAIAGAQRRENGPLEWSYTLPITCQLSLGLQSQLVPILANILEVEQAKCWGFDQFFAETSDILQRVVVHVFSLSQAVLHHIYIHAHNTIAIFQEAVHKQTSVAPRHQEYLFEGHLCVLEPSVSAQHIAHTTASSPLTLFSTAIPKGLAFRDPALDVPKFVPKVDLQADYNTAKGVLGAGYQALRLARALLDGQELMFRGLHWVMEVLQATCRRTLEVARTSLLYLSSSLGTERFSSVAGTPEIQELKAAAELRSRLRTLAEVLSRCSQNITETQESLSSLNRELVKSRDQVHEDRSIQQIQCCLDKMNFIYKQFKKSRMRPGLGYNEEQIHKLDKVNFSHLAKRLLQVFQEECVQKYQASLVTHGKRMRVVHETRNHLRLVGCSVAACNTEAQGVQESLSKLLEELSHQLLQDRAKGAQASPPPIAPYPSPTRKDLLLHMQELCEGMKLLASDLLDNNRIIERLNRVPAPPDV
B1: the NLR (normalized luminescence ratio) came to 17.7.

For the origin of these results see article PMC7913109.
